Test results published in US20220332759A1, “TARGETED PULMONARY DELIVERY COMPOSITIONS AND METHODS USING SAME” (Rutgers, The State University of New Jersey, priority 2019, published 2022).
Ends that are not written are not given here.

Experiments:
[1] = target: T1, human recombinant α3β1 integrin (Homo sapiens, UniProt P05556+P26006); experiment: Phage binding assay to immobilized recombinant proteins; details: increasing molar concentrations, relative to unrelated control peptide
T1 construct: purchased R&D Systems
T1 sequence (P26006 33-991 limits assumed): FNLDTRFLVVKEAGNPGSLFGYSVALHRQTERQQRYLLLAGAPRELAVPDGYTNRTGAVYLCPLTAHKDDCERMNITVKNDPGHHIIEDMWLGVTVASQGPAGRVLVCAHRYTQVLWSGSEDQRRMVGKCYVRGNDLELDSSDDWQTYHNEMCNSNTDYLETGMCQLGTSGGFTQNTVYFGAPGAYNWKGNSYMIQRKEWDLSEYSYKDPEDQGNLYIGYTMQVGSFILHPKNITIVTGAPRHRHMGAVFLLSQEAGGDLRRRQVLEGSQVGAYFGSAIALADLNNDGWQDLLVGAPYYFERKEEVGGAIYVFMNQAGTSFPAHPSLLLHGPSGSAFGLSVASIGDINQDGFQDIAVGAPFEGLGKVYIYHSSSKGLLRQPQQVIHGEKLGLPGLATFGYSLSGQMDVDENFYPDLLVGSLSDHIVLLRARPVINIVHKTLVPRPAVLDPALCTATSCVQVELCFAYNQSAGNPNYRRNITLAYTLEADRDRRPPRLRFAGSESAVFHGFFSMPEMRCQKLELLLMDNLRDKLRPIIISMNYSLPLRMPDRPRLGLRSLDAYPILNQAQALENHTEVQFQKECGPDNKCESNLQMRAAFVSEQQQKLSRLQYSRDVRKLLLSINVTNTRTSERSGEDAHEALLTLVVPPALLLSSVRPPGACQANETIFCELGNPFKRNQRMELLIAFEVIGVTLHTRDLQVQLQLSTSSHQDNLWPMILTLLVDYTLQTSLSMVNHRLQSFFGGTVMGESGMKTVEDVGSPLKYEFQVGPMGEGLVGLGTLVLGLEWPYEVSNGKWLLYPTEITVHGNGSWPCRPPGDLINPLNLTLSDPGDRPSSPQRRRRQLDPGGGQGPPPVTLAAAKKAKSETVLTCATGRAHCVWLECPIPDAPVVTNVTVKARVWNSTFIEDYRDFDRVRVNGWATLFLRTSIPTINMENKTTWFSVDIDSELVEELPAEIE
T1 sequence (P05556 21-728 limits assumed): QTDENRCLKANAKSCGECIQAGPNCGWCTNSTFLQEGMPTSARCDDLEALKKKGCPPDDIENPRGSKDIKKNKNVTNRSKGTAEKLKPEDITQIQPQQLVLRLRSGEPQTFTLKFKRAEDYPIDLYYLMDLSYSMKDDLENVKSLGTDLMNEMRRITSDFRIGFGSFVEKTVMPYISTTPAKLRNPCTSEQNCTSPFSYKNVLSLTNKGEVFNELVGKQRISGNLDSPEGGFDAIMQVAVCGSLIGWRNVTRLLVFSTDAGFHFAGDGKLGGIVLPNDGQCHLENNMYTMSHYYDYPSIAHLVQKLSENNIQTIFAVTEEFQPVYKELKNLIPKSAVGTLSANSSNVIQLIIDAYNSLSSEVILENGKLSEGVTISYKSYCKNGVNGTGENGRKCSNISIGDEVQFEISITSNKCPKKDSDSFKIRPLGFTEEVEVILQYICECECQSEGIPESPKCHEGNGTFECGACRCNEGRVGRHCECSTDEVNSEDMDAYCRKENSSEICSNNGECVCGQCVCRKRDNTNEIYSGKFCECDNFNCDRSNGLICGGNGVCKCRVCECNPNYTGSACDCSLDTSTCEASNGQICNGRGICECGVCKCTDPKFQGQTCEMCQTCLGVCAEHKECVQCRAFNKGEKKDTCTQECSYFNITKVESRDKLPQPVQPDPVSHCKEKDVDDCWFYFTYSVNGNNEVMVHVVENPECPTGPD
Protocol: Phage binding to recombinant proteins (α3β1, α6β1, α6β4, NRP-1 and SDC-1) and BSA (Sigma) were performed as described (Cardó-Vila, et al., 2008, PLoS One 3:e3452). Briefly, 100 ng of each of the indicated proteins dissolved in 50 μL PBS were immobilized in microtiter wells overnight (ON) at 4° C. […] After 2 h at RT, wells were gently washed 10 times with PBS, and phage was recovered by host bacterial infection and represented as “Relative TU” as an empirical measure of the biological replicates and controls when compared to one another as described (Arap, W. et al., Nat. Med., 2002, 8:121-127; Cardó-Vila, et al., 2008, PLoS One 3:e3452). Human recombinant proteins α3β1, α6β1, α6β4, NRP-1 and SDC-1 were all commercially obtained from R&D Systems. Recombinant GST and […]-GST were produced in E. coli transformed with the pGEX4T-1 plasmid (Amersham, GE Healthcare) and purified with standard protocols. All synthetic peptides were custom manufactured by Merrifield synthesis and quality-controlled to the necessary specifications (Biomatik and PolyPeptide Laboratories).

[2] = tested on: A549 cell monolayer; experiment: Cellular barrier permeability (Transwell) assay and empirical model of phage transport; assay type: in vitro ADME, human; details: A549 cells, different concentrations, 1 h
Description: To investigate the transport of phage particles across the cellular monolayer, data from the in vitro Transwell assays (FIG. 3E) was used to quantify the parameters of an empirical mathematical model of phage accumulation in the bottom chamber (Equation 1). The mass of phage particles [N(t), measured experimentally as TU] transported across the cellular barrier at time t, was represented by Equation (Eq. 1), as follows:
where, Ns represent the mass of phage particles (TU) in the bottom chamber at saturation; k is the transport rate constant, the inverse of which gives the characteristic time (τ=1/k) of the transport process. The first derivative of Equation 1
provides the time-dependent transport rate of phage particles across the in vitro cellular barrier. Least squares fitting of the model to the experimental data was performed in MATLAB. The transport rate decays exponentially over time at rate k, and its maximal value can be determined at time t=0 as […]

[3] = target: T2, mouse α3β1 integrin expressed on the plasma membrane of AT1 and AT2 alveolar epithelial cells and club cells (mouse, UniProt Q62470 33-1053; P09055 21-798); experiment: TU count of phage recovered from flow-sorted mouse lung cells after aerosol administration
T2 construct: whole, on cells; Target on lung cells of BALB/c mice after aerosol administration of phage; also called α3β1 integrins in lung tissue; α3β1 integrin in vivo
T2 sequence (Q62470 33-1053, chain 1 of 2): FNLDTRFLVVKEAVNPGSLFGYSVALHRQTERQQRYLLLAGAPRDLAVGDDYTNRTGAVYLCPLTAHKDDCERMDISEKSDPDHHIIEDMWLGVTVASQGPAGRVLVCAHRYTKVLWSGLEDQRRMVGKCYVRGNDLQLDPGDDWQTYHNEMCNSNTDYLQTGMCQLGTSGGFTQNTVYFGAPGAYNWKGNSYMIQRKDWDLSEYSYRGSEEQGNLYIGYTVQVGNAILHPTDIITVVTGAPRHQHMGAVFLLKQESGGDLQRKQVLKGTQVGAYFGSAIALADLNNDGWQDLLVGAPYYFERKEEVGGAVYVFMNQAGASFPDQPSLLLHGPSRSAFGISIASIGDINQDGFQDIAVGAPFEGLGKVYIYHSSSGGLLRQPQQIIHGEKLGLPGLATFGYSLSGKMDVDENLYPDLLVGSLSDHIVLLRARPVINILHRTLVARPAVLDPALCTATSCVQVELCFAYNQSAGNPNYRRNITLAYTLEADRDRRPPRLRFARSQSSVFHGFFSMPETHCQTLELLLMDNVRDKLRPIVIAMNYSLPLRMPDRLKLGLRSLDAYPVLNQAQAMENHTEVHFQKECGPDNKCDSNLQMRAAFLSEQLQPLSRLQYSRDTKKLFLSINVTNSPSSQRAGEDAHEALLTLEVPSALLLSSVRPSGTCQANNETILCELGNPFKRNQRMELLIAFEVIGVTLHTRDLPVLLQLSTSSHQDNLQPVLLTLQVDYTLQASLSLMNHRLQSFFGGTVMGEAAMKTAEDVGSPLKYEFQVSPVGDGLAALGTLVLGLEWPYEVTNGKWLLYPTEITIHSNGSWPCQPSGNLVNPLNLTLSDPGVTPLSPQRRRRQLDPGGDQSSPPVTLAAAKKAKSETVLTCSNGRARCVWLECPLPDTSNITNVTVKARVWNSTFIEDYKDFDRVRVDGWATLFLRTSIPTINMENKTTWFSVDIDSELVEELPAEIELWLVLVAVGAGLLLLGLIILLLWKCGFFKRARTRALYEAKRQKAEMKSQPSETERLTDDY
T2 sequence (P09055 21-798, chain 2 of 2): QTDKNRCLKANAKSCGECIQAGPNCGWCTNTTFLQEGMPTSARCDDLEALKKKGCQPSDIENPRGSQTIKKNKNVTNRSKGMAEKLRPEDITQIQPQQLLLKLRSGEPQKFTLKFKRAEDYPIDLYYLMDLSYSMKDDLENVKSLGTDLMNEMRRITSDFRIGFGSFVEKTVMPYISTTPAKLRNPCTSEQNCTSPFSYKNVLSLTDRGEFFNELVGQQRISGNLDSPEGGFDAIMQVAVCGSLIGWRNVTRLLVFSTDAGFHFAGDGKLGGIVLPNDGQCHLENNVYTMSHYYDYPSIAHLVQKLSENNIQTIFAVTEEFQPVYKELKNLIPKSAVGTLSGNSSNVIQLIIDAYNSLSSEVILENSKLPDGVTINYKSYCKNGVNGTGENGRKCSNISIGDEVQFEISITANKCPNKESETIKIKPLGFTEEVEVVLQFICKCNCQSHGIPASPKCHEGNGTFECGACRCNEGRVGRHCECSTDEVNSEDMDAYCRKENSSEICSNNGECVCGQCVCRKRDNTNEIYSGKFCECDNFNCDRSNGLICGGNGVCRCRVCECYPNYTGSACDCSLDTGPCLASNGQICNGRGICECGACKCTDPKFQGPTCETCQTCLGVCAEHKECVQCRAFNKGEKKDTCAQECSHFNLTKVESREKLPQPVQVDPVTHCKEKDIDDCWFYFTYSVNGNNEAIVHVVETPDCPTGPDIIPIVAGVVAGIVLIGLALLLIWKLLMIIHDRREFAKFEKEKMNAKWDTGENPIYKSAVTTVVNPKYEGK
Protocol: Cells were sorted in an iCyt sy3200 (Sony) cell sorter previously calibrated with compensation beads (UltraComp eBeads, Thermo Scientific). AT1-, AT2-enriched cell populations and macrophages were centrifuged, and the number of phage particles per cell type was determined by TU count.
To further evaluate the bioavailability of [sequence]-displaying phage particles after aerosol administration, the binding capabilities of the phage particles to specific lung cells were determined by flow cytometry. […] Specific cell populations of the lung were isolated and flow cytometry sorted in three main cell populations (FIG. 5A): AT1-enriched population (EPCAM⁺, CD45⁻, CD31⁻, T1α^high); AT2-enriched population (EPCAM⁺, CD45⁻, CD31⁻, Tα^low) and mononuclear phagocytes (EPCAM⁻, CD45⁺, CD31⁻, F4/80⁺). The number of either targeted or control phage particles bound to each cell population was determined by TU counting after infection with a host bacterium.

[4] = target: T3, human recombinant α3β1 integrin (human, UniProt P26006 33-991; P05556 21-728); experiment: competition of phage binding to immobilised α3β1 (FIG. 3B)
T3 construct: Bought protein, 100 ng immobilised in microtiter wells; also called α3β1 integrins
T3 sequence (P26006 33-991 limits assumed, chain 1 of 2): as the sequence (P26006 33-991 limits assumed) above
T3 sequence (P05556 21-728 limits assumed, chain 2 of 2): as the sequence (P05556 21-728 limits assumed) above

CAKSMGDIVC [index ligand transport peptide; soluble synthetic peptide produced through Merrifield synthesis]
inhibition of CAKSMGDIVC-displaying phage binding to α3β1 integrin [1]: Concentration-dependent inhibition

CAKSMGDIVC-GST: recombinant CAKSMGDIVC-GST produced in E. coli transformed with the pGEX4T-1 plasmid (CAKSMGDIVC-{GST}; cysteine pairing not given here)
competition of CAKSMGDIVC-displaying phage transport in Transwell [2]: concentration-dependent ligand-receptor specificity

B1: targeted CAKSMGDIVC-displaying phage particles (other, not shown: large carriers)
chain: CAKSMGDIVC
modifications: not fully specified (bridges); cysteine pairing not given here; also: displayed on phage pIII
notes: Whole phage particle; also called phage clone 2
fold binding to AT1-enriched population against AT2-enriched cells [3]: ~2 fold

B2: synthetic CAKSMGDIVC peptide (peptide)
peptide: CAKSMGDIVC
notes: Made by Merrifield synthesis; also called cognate synthetic peptide
binding result [4]: binds
